Here are results for 3 substances from patent US20190241619A1.

In this assay the target is HLA-B15 (human). Briefly: experimental peptide-HLA binding affinity; method not described.
Turning to HPV16 E7/15-23 peptide …, the Binding affinity is 4.68 µM.

As for HPV16 E7/15-24 peptide …, the Binding affinity stood at 38.5 µM.

HPV16 E7/15-25 peptide … registered a Binding affinity of 7.3 µM.
